Experimental findings from patent publication US20240309103A1 (Regeneron, published 2024) are described below.

For test [1], the target named is T1, mNPR1-mFc (mouse).
T1 construct: also called mouse NPR1 extracellular domain expressed with a C-terminal mouse IgG2a
T1 chain: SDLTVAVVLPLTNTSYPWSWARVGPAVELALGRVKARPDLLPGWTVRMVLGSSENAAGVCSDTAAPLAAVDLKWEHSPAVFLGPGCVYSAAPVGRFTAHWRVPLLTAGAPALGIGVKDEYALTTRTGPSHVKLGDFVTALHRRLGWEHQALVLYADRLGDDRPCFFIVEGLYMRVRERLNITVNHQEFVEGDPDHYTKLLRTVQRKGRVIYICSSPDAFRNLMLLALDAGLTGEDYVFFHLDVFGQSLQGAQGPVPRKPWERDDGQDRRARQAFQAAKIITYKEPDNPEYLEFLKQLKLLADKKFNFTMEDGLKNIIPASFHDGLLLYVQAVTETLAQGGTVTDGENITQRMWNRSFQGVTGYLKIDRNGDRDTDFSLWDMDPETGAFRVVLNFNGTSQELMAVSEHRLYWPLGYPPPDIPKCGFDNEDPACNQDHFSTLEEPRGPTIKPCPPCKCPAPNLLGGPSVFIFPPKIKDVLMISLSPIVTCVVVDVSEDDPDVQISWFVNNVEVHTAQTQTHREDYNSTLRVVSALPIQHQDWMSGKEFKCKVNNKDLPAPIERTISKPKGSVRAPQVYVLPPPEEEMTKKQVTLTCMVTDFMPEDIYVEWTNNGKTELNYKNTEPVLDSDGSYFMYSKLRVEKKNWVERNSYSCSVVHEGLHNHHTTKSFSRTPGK
In words: SPR Biacore, mAb captured by anti-human Fc, 25C. On the procedure: (§1) Equilibrium dissociation constant (KD) for different NPR1 reagents binding to purified anti-NPR1 monoclonal antibodies (mAbs) were determined using a real-time surface plasmon resonance based Biacore 4000 biosensor. All binding studies were performed in 10 mM HEPES, 150 mM NaCl, 3 mM EDTA, and 0.05% v/v Surfactant Tween-20, pH 7.4 (HBS-ET) running buffer at 25° C. and 37° C. The Biacore CM5 sensor chip surface was first derivatized by amine coupling with either mouse anti-human Fc specific mAb (GE Healthcare, #BR100839) or goat anti-human Fcy specific polyclonal antibody (Jackson ImmunoResearch Laboratories, #BR-1008-39) to capture anti-NPR1 mAbs.
In general terms: Surface plasmon resonance follows binding to a sensor surface in real time, without labels.

Test [2] deals with T1, mNPR1-mFc. Put plainly: SPR Biacore, mAb captured by anti-human Fc, 37C. On the procedure: as §1
The target of the next test is T2, mfNPR1-mFc:hBNP complex (monkey; human, UniProt P16860 103-134).
T2 construct: Receptor-Fc pre-complexed with 10-fold hBNP
Put plainly: SPR Biacore, mAb captured by anti-human Fc, 37C. As to the method: as §1

Test [3] addresses T3, human NPR1 on HEK293/hNPR1.myc.DDK cells (0 hANP) (human, UniProt P16066 33-1061).
T3 sequence: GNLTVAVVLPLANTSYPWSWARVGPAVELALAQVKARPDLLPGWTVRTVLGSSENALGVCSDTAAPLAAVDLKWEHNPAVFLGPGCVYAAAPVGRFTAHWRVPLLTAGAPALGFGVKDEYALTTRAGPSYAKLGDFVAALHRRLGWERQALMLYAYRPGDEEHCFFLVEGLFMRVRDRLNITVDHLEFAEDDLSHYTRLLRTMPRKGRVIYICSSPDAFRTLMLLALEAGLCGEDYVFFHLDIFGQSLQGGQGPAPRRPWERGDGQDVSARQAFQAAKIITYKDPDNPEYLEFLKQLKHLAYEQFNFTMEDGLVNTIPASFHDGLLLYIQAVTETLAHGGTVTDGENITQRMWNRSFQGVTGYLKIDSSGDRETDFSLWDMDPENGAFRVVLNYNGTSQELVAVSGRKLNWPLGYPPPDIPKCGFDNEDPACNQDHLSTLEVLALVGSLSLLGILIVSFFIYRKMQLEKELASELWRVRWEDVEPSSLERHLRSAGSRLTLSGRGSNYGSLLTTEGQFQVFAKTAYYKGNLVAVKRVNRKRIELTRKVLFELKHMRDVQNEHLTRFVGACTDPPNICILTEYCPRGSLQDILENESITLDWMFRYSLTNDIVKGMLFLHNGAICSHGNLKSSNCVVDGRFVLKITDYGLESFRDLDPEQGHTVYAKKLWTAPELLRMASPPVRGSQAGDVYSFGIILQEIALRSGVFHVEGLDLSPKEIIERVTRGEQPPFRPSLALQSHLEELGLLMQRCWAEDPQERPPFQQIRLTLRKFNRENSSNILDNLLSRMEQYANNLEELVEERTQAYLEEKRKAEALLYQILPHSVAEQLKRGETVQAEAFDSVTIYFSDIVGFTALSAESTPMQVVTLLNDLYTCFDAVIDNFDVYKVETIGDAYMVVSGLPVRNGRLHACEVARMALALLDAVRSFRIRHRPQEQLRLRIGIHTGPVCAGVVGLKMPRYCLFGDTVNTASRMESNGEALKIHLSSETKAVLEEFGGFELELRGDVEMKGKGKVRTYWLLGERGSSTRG
In words: cell-based or functional assay.

For test [4], the target named is T3, human NPR1 on HEK293/hNPR1.myc.DDK …. In words: ECL cell binding (MSD), 0 hANP. On the procedure:
(§2) All cells were washed once with 1×PBS with Ca²⁺/Mg²⁺ and counted with a Cellometer™ Auto T4 cell counter (Nexcelom Bioscience). Approximately 2.0×10⁴ HEK293/hNPR1.myc.DDK or HEK293 cells were seeded separately onto 96-well carbon electrode plates (MULTI-ARRAY high bind plate, Meso Scale Discovery (MSD, Rockville, MD)) and incubated for 1 hour (h) at 37° C. Nonspecific binding sites were blocked by 2% BSA (w/v) in 1×PBS with Ca²⁺/Mg²⁺for 1 h at room temperature (RT). HEK293/hNPR1.myc. […] The plate-bound antibodies were detected with SULFO-TAG™-conjugated goat polyclonal anti-human IgG antibody specific for heavy and light chains (Jackson Immunoresearch, West Grove, PA) for 1 h, RT.
(§3) After washes, plates were developed with Read Buffer (MSD, Rockville, MD) according to manufacturer's recommended procedure and luminescent signals were recorded with a SECTOR Imager 600 (MSD, Rockville, MD). Luminescence intensity, measured in relative light units (RLU), was recorded to indicate the binding intensity of each antibody at the range of concentrations.
(§4) In addition, direct binding signals (RLU) were analyzed as a function of the antibody concentration and data were fitted with a sigmoidal (four-parameter logistic) dose-response model using R statistical package (open source).

Test [5] deals with T4, human NPR1 on HEK293/hNPR1.myc.DDK cells with 10 nM hANP (NPR1-ANP complex) (human, UniProt P01160 124-151).
T4 construct: also called NPR1-ANP Complex on the Cell Surface
T4 sequence: T3 sequence
T4 sequence (peptide): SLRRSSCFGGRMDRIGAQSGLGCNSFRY
In words: ECL cell binding (MSD), +10 nM hANP. As to the method:
as §2, §3, §4

Test [6] concerns the target T5, mouse NPR1 extracellular domain expressed with a C-terminal mouse IgG2a (mNPR1-mFc) (mouse).
T5 chain: T1 chain
In words: SPR, Tables 21 to 26. On the procedure: as §1

The target in test [7] is T6, mouse NPR1 extracellular domain expressed with a C-terminal myc-myc-hexahistidine (mNPR1-MMH) (mouse, UniProt P18293 29-469). In words: SPR, mAb captured, 25 C. On the procedure:
as §1

For test [8], the target named is T7, human NPR1 extracellular domain expressed with a C-terminal mouse IgG2a (hNPR1-mFc) (human).
T7 construct: also called hNPR1-Fc; human NPR1 dimer
T7 chain: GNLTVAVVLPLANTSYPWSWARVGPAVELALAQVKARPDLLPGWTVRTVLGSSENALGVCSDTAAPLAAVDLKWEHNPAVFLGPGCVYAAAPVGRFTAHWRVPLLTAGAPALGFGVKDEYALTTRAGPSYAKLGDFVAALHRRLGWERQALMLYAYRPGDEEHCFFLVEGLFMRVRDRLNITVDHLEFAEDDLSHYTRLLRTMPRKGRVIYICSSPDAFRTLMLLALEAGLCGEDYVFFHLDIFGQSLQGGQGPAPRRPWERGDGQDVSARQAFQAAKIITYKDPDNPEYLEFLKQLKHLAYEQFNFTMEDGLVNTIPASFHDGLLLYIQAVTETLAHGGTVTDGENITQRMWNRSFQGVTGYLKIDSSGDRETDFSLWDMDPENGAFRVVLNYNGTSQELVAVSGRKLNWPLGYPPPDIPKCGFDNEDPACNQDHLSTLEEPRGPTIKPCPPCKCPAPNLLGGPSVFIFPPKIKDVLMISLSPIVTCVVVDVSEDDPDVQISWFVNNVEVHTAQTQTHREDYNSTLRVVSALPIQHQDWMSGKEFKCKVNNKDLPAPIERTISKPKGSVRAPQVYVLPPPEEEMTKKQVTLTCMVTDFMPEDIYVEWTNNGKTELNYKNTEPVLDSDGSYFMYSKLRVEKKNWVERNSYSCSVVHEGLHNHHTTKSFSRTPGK
In words: SPR, mAb captured, 25 C. On the procedure: as §1

For test [9], the target named is T8, monkey NPR1 extracellular domain expressed with a C-terminal myc-myc-hexahistidine (mfNPR1-MMH) (monkey, UniProt P16066 33-473 (human entry)).
T8 construct: also called monomeric monkey NPR1
T8 chain: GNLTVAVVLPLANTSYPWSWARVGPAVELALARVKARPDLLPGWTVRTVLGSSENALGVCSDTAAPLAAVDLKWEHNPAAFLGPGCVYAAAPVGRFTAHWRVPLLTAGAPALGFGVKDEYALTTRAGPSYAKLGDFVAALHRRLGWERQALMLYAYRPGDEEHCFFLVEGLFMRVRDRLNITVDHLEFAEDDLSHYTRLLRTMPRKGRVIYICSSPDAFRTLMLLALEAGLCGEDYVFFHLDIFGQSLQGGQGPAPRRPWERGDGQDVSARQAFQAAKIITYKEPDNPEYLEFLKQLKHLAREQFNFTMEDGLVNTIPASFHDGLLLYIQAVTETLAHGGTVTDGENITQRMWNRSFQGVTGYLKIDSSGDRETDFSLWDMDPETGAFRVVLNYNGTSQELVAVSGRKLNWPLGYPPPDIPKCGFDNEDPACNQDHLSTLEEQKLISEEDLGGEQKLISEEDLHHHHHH
In words: SPR, mAb captured, 25 C. As to the method:
as §1

The target in test [10] is T6, mouse NPR1 extracellular domain …. Put plainly: SPR, mAb captured, 37 C. As to the method: as §1
For test [11], the target named is T7, human NPR1 extracellular domain …. Put plainly: SPR, mAb captured, 37 C. On the procedure: as §1
Test [12] addresses T8, monkey NPR1 extracellular domain …. In words: SPR, mAb captured, 37 C. On the procedure: as §1

B1: mAb25508 (antibody, human IgG4, V domains shown)
VH: EVQLVESGGGVVRPGGSLRLSCAASGFNVDDYGMSWVRQIPGKGLEWISGINWNGGRIYYADSMKGRITISRDNAKNSLYLQMNSLRAEDTALYHCVRDQWLVRGLDYWGQGTLVTVSS
VL: DIQMTQSPSSLSASVGDRVTITCRASQGIYNYLAWFQQKPGKAPKSLIYAASSLQSGVPSKFSGSGSGTDFTLTISSLQPEDFATYYCQQYNTYPYTFGQGTKLEIK
On to B1, for which the “100 nM Ag Bound (RU)” value with mNPR1-mFc [1] was -1 RU. For the same molecule, the “100 nM Ag Bound (RU)” value with mNPR1-mFc [2] was determined as 0 RU. Moreover, in the test with mfNPR1-mFc:hBNP complex, the “100 nM Ag Bound (RU)” value amounted to 266 RU; binding was characterised by a dissociation constant (Kd) of 0.354 nM; the off-rate (koff) – broadly, the rate constant with which the complex falls apart – is 0.00015 s⁻¹; the on-rate (kon) (in general, a measure of how fast the partners come together) came to 423000 M⁻¹ s⁻¹. Moreover, the t½ (commonly the time in which the quantity being followed falls by half) in the test with mfNPR1-mFc:hBNP complex was found to be 1.28 h. Also, in [3], the “% Activation (vs ANP max), Expt 1” value was 56.1% and the “EC50 (nM), calcium flux, Expt 1” value was determined as 326 nM. For the same molecule, the “Ratio at 3.7 nM Ab concentration of Cell Binding Signal (RLU) to HEK293/hNPR1.myc.DKK relative to parental HEK293” value in [4] came to 18 ratio. Besides, in test [5], the EC50 (commonly the concentration at which the effect is half-maximal) is 1.3 nM and the “Ratio at 3.7 nM Ab concentration of Cell Binding Signal (RLU) to HEK293/hNPR1.myc.DKK relative to parental HEK293” value was 35 ratio.

B2: mAb25545 (antibody, V domains shown)
VH: QVQLVESGGGLVKPGGSLRLSCAASGFTFSDYHLSWIRQAPGKGLEWVSYIRSSGRTIDYAASVKGRFTISRDNAKNSLYLQMNSLRVEDTAVYYCARENWIVLKVYAGIVGAPLDQWGQGTLVTVSS
VL: not shown
In the case of B2, the figures for the binding result in test [6] and in test [7] were “no binding” and “no binding (tested: 100 nM)”, respectively. The “100 nM Ag Bound (RU)” value in test [7] was found to be 0 RU; in test [8] it was 7 RU; in test [9], 4 RU; in test [10], 1 RU; in [11], 15 RU; in test [12], 10 RU.
